From publication PMC7076219 come the findings set out here.

This assay addresses ligands on KG1a cells (human (endogenous in KG1a)). Briefly: flow cytometry on cells; KG1a cells stained with 10 ug/ml E-selectin protein in HBSS with 5% FBS and 2 mM CaCl2, 4 °C, 20 min; detected by Strep-tag II mAb and PE anti-mouse IgG1.

B1: E-S6 (monomeric full-length extracellular mouse E-selectin) (domain or fragment)
chain: WYYNASSELMTYDEASAYCQRDYTHLVAIQNKEEINYLNSNLKHSPSYYWIGIRKVNNVWIWVGTGKPLTEEAQNWAPGEPNNKQRNEDCVEIYIQRTKDSGMWNDERCNKKKLALCYTASCTNASCSGHGECIETINSYTCKCHPGFLGPNCEQAVTCKPQEHPDYGSLNCSHPFGPFSYNSSCSFGCKRGYLPSSMETTVRCTSSGEWSAPAPACHVVECEALTHPAHGIRKCSSNPGSYPWNTTCTFDCVEGYRRVGAQNLQCTSSGIWDNETPSCKAVTCDAIPQPQNGFVSCSHSTAGELAFKSSCNFTCEQSFTLQGPAQVECSAQGQWTPQIPVCKAVQCEALSAPQQGNMKCLPSASGPFQNGSSCEFSCEEGFELKGSRRLQCGPRGEWDSKKPTCSAVKCDDVPRPQNGVMECAHATTGEFTYKSSCAFQCNEGFSLHGSAQLECTSQGKWTQEVPSCQVVQCPSLDVPGKMNMSCSGTAVFGTVCEFTCPDDWTLNGSAVLTCGATGRWSGMPPTCEAPVSPTRP
The molecule B1 gave a percent of the live KG1a population bound of 86%.
